Here are results for 4 molecules from patent publication US20030064410A1 (ECOLE POLYTECHNIQUE FEDERALE DE LAUSANNE EPFL, published 2003).

The target in assay [1] is T1, VEGF165 (vascular endothelial cell growth factor, 165 isoform), recombinant from E. coli, refolded dimer (human, UniProt P15692-4 27-191, Example 1: about 4 AMCA coumarins per VEGF165, sites not given; Example 3 screen: biotinylated, sites not given).
T1 construct: Tags from the pRSET vector are not mentioned; also called coumerin-VEGF; coumarin-labeled VEGF165
T1 sequence (P15692 other isoform, or with tags, fused parts or gaps limits assumed): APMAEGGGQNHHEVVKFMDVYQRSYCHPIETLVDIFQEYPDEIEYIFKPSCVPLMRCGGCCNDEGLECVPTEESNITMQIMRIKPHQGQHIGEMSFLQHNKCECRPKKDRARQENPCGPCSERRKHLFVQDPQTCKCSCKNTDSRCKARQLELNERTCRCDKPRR
Nature of the assay: on-bead colorimetric screen, about 0.25 nM biotinylated VEGF165 with 1 equivalent of heparin. On the procedure:
The resin was rinsed with TBS (5×) and 200 μL of 5-bromo-4-chloro-3-indoylphosphate p-toluidine salt/nitro blue tetrazolium chloride (BCIP/NBT) reagent was added to develop a blue/black color where the streptavidin alkaline phosphatase was present. Nonspecific adsorption of the streptavidin alkaline phosphatase was detected as blue/black stained beads. After 15 minutes, the resin was rinsed with TBS (5×) prior to adding 100 μL of about 0.25 nM of biotinylated VEGF₁₆₅ in the presence or absence of 1 or 10 equivalents of heparin sodium salt (isolated from porcine intestinal mucosa) in 400 μL of blocking buffer. The mixture was shaken overnight, the solution removed, the resin washed with TBS (6×), and 1 mL streptavidin alkaline phosphatase (diluted 1:1000 from a 1 mg/mL solution) was added. The streptavidin alkaline phosphatase preferentially attached to beads having VEGF since the VEGF was attached to biotin, which is a ligand for the streptavidin on the streptavidin alkaline phosphatase. After 2 h the solution was removed and rinsed with TBS (5×) and Fast Red substrate (PIERCE) was added to make the presence of the alkaline phosphatase visible by making a red color. Positive beads were those that were stained red. The red beads were selected, and subjected to 8M guanidine-HCl, pH=1.4 for 20 minutes prior to rinsing with H20 (3×) and DMF until residual color was removed. […]

Assay [2] addresses T1, VEGF165 (vascular endothelial cell …). The experiment in a line: SPR.

Square brackets hold non-standard residues; d marks the D form. Ends that are not written are not given here. sY = N[C@@H](Cc1ccc(OS(=O)(=O)O)cc1)C(=O)O

Consider [sY][sY]GG[sY]D[sY]GGGG-{PEGA resin} (not fully specified (N-terminus); printed as Y(SO3)Y(SO3)GGY(SO3)DY(SO3)) [Y(SO3)Y(SO3)GGY(SO3)DY(SO3)-Gly-Gly-Gly-Gly-PEGA bead], for which, in assay [1], the binding result is listed as “binds”.

Turning to F[sY]GG[sY]D[sY]GGGG-{PEGA resin} (not fully specified (N-terminus)) [FY(SO3)GGY(SO3)DY(SO3)-Gly-Gly-Gly-Gly-PEGA bead], the binding result in assay [1] is on record as “binds”.

B1: SY(SO3)DY(SO3)G (peptide)
peptide: S[sY]D[sY]G
modifications: not fully specified (C-terminus); printed as SY(SO3)DY(SO3)G
notes: Independently synthesized free peptide used in SPR
Consider B1, for which the Kd in assay [2] is 3100 nM.

B2: Y(SO3)Y(SO3)GGY(SO3)DY(SO3)G (peptide)
peptide: [sY][sY]GG[sY]D[sY]G
modifications: not fully specified (N-terminus, C-terminus); printed as Y(SO3)Y(SO3)GGY(SO3)DY(SO3)G
notes: as for B1
As for B2, the dissociation constant (Kd) in assay [2] is 140 nM.
